# Measured values as given in the Immune Epitope Database (IEDB).
# Key:
# HLA-A*30:02 = assay: IEDB peptide-MHC binding, purified MHC/competitive/radioactivity; filed as Kd, often an IC50 or EC50 that approximates it; ≥ and ≤ were set here for values at or beyond the usual limits of such assays
# HLA-A*32:01 = assay: as above
# HLA-A*26:01 = assay: as above
# HLA-A*30:01 = assay: as above
# HLA-A*29:02 = assay: as above
# HLA-A*01:01 [1] = assay: as above
# HLA-B*18:01 = assay: IEDB peptide-MHC binding, purified MHC/direct/fluorescence; filed as Kd, often an IC50 or EC50 that approximates it; ≥ and ≤ were set here for values at or beyond the usual limits of such assays
# HLA-B*08:01 = assay: IEDB peptide-MHC binding, purified MHC/competitive/radioactivity; filed as Kd, often an IC50 or EC50 that approximates it; ≥ and ≤ were set here for values at or beyond the usual limits of such assays
# HLA-A*68:01 = assay: as above; conditions: source organism: Mammarenavirus choriomeningitidis
# HLA-A*33:01 = assay: as above; conditions: source organism: Mammarenavirus choriomeningitidis
# HLA-A*31:01 = assay: as above; conditions: source organism: Mammarenavirus choriomeningitidis
# HLA-A*03:01 [2] = assay: as above; conditions: source organism: Mammarenavirus choriomeningitidis
# HLA-B*44:02 = assay: IEDB peptide-MHC binding, purified MHC/direct/fluorescence; filed as Kd, often an IC50 or EC50 that approximates it; ≥ and ≤ were set here for values at or beyond the usual limits of such assays; conditions: source organism: Escherichia coli O157:H7
# HLA-B*58:01 = assay: as above; conditions: source organism: Escherichia coli O157:H7
# HLA-B*15:01 = assay: as above; conditions: source organism: Escherichia coli O157:H7
# HLA-A*03:01 [3] = assay: as above; conditions: source organism: Escherichia coli O157:H7
# HLA-B*07:02 = assay: as above; conditions: source organism: Escherichia coli O157:H7
# HLA-A*02:01 = assay: as above; conditions: source organism: Escherichia coli O157:H7
# HLA-B*27:05 = assay: as above; conditions: source organism: Escherichia coli O157:H7
# HLA-B*40:01 = assay: as above; conditions: source organism: Escherichia coli O157:H7
# HLA-A*01:01 [4] = assay: as above; conditions: source organism: Escherichia coli O157:H7
# HLA-A*23:01 = assay: IEDB peptide-MHC binding, purified MHC/competitive/radioactivity; filed as Kd, often an IC50 or EC50 that approximates it; ≥ and ≤ were set here for values at or beyond the usual limits of such assays; conditions: source organism: Lassa virus Josiah
# HLA-A*24:02 = assay: as above; conditions: source organism: Lassa virus Josiah
# HLA-B*53:01 = assay: as above; conditions: source organism: Dengue virus 2 Jamaica/1409/1983
# HLA-B*51:01 = assay: as above
# [5] = source organism: Mammarenavirus guanaritoense
# [6] = source organism: West Nile virus
# [7] = source organism: Dengue virus 1 Brazil/97-11/1997
# [8] = source organism: Dengue virus 2 Jamaica/1409/1983
# [9] = source organism: Vaccinia virus WR
# [10] = source organism: Dengue virus 4 Philippines/H241/1956
# [11] = source organism: Mammarenavirus brazilense
# [12] = source organism: Mammarenavirus juninense
# [13] = source organism: Lassa virus Josiah
# [14] = source organism: Dengue virus 3 Martinique/1243/1999
# [15] = source organism: Mammarenavirus tacaribeense
sequence,measurement,setting,value
CTLEGVWAPF,Kd,HLA-A*30:02; [5],0.937 µM
same,Kd,HLA-A*32:01; [5],0.0442 µM
same,Kd,HLA-A*26:01; [5],0.116 µM
same,Kd,HLA-A*30:01; [5],6.96 µM
same,Kd,HLA-A*29:02; [5],0.957 µM
same,Kd,HLA-A*01:01 [1]; [5],1.22 µM
NEVEVITKL,Kd,HLA-B*18:01; [6],0.0063 µM
IELEHLRGL,Kd,HLA-B*18:01; source organism: Giardia lamblia ATCC 50803,0.01 µM
RADRVIDPRR,Kd,HLA-A*30:01; [7],1.93 µM
MGLGKGWPL,Kd,HLA-B*08:01; [8],0.00872 µM
FPRSMLSIF,Kd,HLA-B*08:01; [9],0.00988 µM
LVSFLLLAGR,Kd,HLA-A*68:01,0.0364 µM
same,Kd,HLA-A*33:01,0.151 µM
same,Kd,HLA-A*31:01,0.00928 µM
same,Kd,HLA-A*03:01 [2],0.803 µM
same,Kd,HLA-A*30:01; source organism: Mammarenavirus choriomeningitidis,9.51 µM
TFIRSTMPLV,Kd,HLA-A*30:01; [10],0.257 µM
FRYVFFEII,Kd,HLA-B*08:01; source organism: Vaccinia virus Copenhagen,0.208 µM
SMYQLMITI,Kd,HLA-B*44:02,≥ 20 µM
same,Kd,HLA-B*58:01,≥ 20 µM
same,Kd,HLA-B*15:01,≥ 20 µM
same,Kd,HLA-A*03:01 [3],≥ 20 µM
same,Kd,HLA-B*07:02,≥ 20 µM
same,Kd,HLA-A*02:01,0.827 µM
same,Kd,HLA-B*27:05,≥ 20 µM
same,Kd,HLA-B*40:01,≥ 10 µM
same,Kd,HLA-A*01:01 [4],≥ 20 µM
YNKQSLVSL,Kd,HLA-B*08:01; [9],0.0301 µM
KKMIRPQPME,Kd,HLA-A*30:01; [7],8.74 µM
MIDNQKLSY,Kd,HLA-A*30:02; [11],0.843 µM
same,Kd,HLA-A*32:01; [11],≥ 61.2 µM
same,Kd,HLA-A*26:01; [11],≥ 34.7 µM
same,Kd,HLA-A*30:01; [11],≥ 34.6 µM
same,Kd,HLA-A*29:02; [11],0.106 µM
same,Kd,HLA-A*01:01 [1]; [11],0.00961 µM
ATREAQKRA,Kd,HLA-A*30:01; [8],0.0274 µM
LYDVIPVTY,Kd,HLA-A*30:02; [12],4.2 µM
same,Kd,HLA-A*32:01; [12],≥ 77.8 µM
same,Kd,HLA-A*26:01; [12],≥ 77.9 µM
same,Kd,HLA-A*30:01; [12],≥ 78.1 µM
same,Kd,HLA-A*29:02; [12],0.375 µM
same,Kd,HLA-A*01:01 [1]; [12],0.145 µM
REDIWCGSL,Kd,HLA-B*18:01; [6],7.08 µM
DTVTYKCPLL,Kd,HLA-A*30:01; source organism: Dengue virus 4 Dominica/814669/1981,3.08 µM
DCIMTSYQYL,Kd,HLA-A*30:02; [13],10.4 µM
same,Kd,HLA-A*32:01; [13],3.04 µM
same,Kd,HLA-A*23:01,5.33 µM
same,Kd,HLA-A*26:01; [13],12.6 µM
same,Kd,HLA-A*24:02,2.31 µM
same,Kd,HLA-A*30:01; [13],4.43 µM
same,Kd,HLA-A*29:02; [13],14.2 µM
same,Kd,HLA-A*01:01 [1]; [13],3.86 µM
SPCKIPFEI,Kd,HLA-B*53:01,1.28 µM
same,Kd,HLA-B*51:01; [8],≥ 47.7 µM
SPLSKCVVV,Kd,HLA-B*08:01; [9],0.0309 µM
LMLVALLGAM,Kd,HLA-B*08:01; [10],7.19 µM
VEAGLIDTY,Kd,HLA-B*18:01; source organism: Vibrio vulnificus YJ016,≥ 20 µM
RTKIPLSKV,Kd,HLA-A*30:01; [9],0.00413 µM
MFFIRFGKM,Kd,HLA-B*08:01; [9],0.0319 µM
LLQMENKAWL,Kd,HLA-B*08:01; source organism: Dengue virus 2 16681-PDK53,0.28 µM
KPAVRFAIL,Kd,HLA-B*08:01; [9],1.43 µM
RTRNALDNL,Kd,HLA-A*30:01; [14],0.00333 µM
LLKLGFEEI,Kd,HLA-B*08:01; [9],0.51 µM
FVAAALHNV,Kd,HLA-A*30:02; [15],≥ 76.9 µM
same,Kd,HLA-A*32:01; [15],≥ 77.8 µM
same,Kd,HLA-A*26:01; [15],2.54 µM
same,Kd,HLA-A*30:01; [15],6.1 µM
same,Kd,HLA-A*29:02; [15],13.5 µM
same,Kd,HLA-A*01:01 [1]; [15],≥ 20.5 µM
AARDRQFEK,Kd,HLA-A*30:01; [9],0.104 µM
MVKPKGKVV,Kd,HLA-B*08:01; [10],0.0446 µM
LGLMALKLI,Kd,HLA-B*51:01; [14],8.37 µM
